Assay [1] has as its target T1, SARS-CoV-2-S1 (RBD)-His protein (Trenzyme) (SARS-CoV-2, UniProt P0DTC2 319-541). The assay can be described thus: competition ELISA, RBD binding to coated ACE2. In general terms: In an ELISA, binding on a coated surface is turned into a signal by an enzyme label.
For assay [2], the target named is 2019-nCov Spike protein (S1 mFC tag) (SARS-CoV-2, UniProt P0DTC2 16-685).
In assay [3] the target is T1, SARS-CoV-2-S1 (RBD)-His protein ….
Assay [4] shares this target. Put plainly: direct ELISA on coated RBD-His (FIG. 1D).
For assay [5] the target is unchanged. The assay can be described thus: direct ELISA on coated RBD-His.

Where “and” joins values, the source holds several entries; their conditions need not be identical. Equal entries are not always repeated.

Broadly, the IC50 is the point on the concentration scale where inhibition reaches its midpoint. A high value points to weaker potency in that assay. One may read the EC50 (read off the curve) as the midpoint of the concentration-response curve. Higher therefore signals a need for much substance. The EC50 is the concentration needed to bring the measured effect to its halfway point. Read a low EC50 as higher potency in that assay.

B1: NI-607.532_C11 IgG4 S228P (antibody, V domains shown)
VH: QVQLVESGGGLIQPGGSLRLSCAASGFTVSSNYMSWVRQAPGKGLEWVSVIYSGGSTYYADSVKGRFTISRDNSKNTLFLQMNSLRAEDTAVYYCARDLQYYGMDVWGQGTTVTVSS
VL: DIQMTQSPSFLSASVGDRVTITCRASQGISSYLAWYQQKPGKAPKLLIYAASTLQSGVPSRFSGSGSGTEFTLTISSLQPEDFATYYCQQLDSYPPRDTFGQGTKVEIK
Consider B1, for which the IC50 in assay [1] was ~2.32 µg/mL and ~15.4 nM.

B2: NI-607.649_B11 (antibody, V domains shown)
VH: QVQLVQSGAEVKKPGSSVKVSCKASGGTFSNYAISWVRQAPGQGLEWMGGIIPIFGTANYAQKFQGRVTITADESTSTAYMELSSLRSEDTAVYYCAGDRWYYDSSGYPTPDEYFQHWGQGTQVTVSS
VL: QSVLTQPPSVSGAPGQRVTISCTGSSSNIGAGYDVHWYQQLPGTAPKLLIYGNSNRPSGVPDRFSGSKSGTSASLAITGLQAEDEADYYCQSYDSSLSGVVFGGGTKLTVL
For B2, in assay [2], the concentration giving a half-maximal response (EC50 (read off the curve)) was about 500 pM.

B3: NI-607.649_B11 IgG4 S228P (antibody, V domains shown)
VH: B2 VH
VL: B2 VL
Regarding B3, in assay [3], the “IC50 (read off the curve)” value was about 0.05 µg/mL. Further, the half-inhibitory concentration (IC50) in assay [1] is about 0.047 µg/mL. Besides, the concentration giving a half-maximal response (EC50) in assay [4] is about 8.5 pM.

B4: NI-607.532_F9 IgG4 S228P (antibody, V domains shown)
VH: EVQLVESGGNLIQPGGSLRLSCAASGFTVSSNYMSWVRQAPGKGLEWVSVIYSGGSTYYADSVKGRFTISRDNSRNTLYLQMNSLRAEDTAVYFCARDRVVRGVRGNGMDVWGQGTTVTVSS
VL: AIRMTQSPSSLSASVGDRVTITCQASQDINIYLNWYQQRPGKAPKLLIYDASNLETGVPSRFSGSGSGTDFTFTISSLQPEDIATYYCHQYDNLPRTFGQGTKVDIK
As for B4, the IC50 in assay [1] is ~1.09 µg/mL and ~7.3 nM.

B5: NI-607.427_C5 IgG4 S228P (antibody, V domains shown)
VH: QVQLVQSGAEVKKPGASVKVSCKASGYTFTSYGISWVRQAPGQGLEWMGWISAYNGNTNYAQKLQGRVTMTTDTSTSTAYMELRSLRSDDTAVYYCARDNRAGWDQLDYWGQGTLVTVSS
VL: not shown
For B5, the IC50 in assay [1] was ~2.79 µg/mL and ~18.6 nM.

B6: NI-607.531_C8 IgG4 S228P (antibody, V domains shown)
VH: EVQLVESGGGVVQPGRSLRLSCTASGFTFSFYSVHWVRQAPGKGLEWVAVISYDGSTKYYADSVKGRFTISRDNSKNTLYLQMDSLRTEDTAVYYCASPPISPIPAAGTPLAYWGQGTLVTVSS
VL: not shown
For B6, the “IC50 (read off the curve)” value in assay [3] is about 0.03 µg/mL. The half-maximal inhibitory concentration (IC50) in assay [1] is about 0.191 µg/mL. The molecule further returned an EC50 in assay [5] of about 8.5 pM.

Source of the values: US20230242624A1 (NEURIMMUNE, published 2023).
